Results as given in paper PMC12931925.

Molecular target: KRAS^G12D (UniProt P01116)

Sequence of RBDCRD-NarX fusions (RAS-binding components of the RAS sensor, RBDCRD wild-type) (P0AFA2 whole entry, looked up, the tested form may be a part): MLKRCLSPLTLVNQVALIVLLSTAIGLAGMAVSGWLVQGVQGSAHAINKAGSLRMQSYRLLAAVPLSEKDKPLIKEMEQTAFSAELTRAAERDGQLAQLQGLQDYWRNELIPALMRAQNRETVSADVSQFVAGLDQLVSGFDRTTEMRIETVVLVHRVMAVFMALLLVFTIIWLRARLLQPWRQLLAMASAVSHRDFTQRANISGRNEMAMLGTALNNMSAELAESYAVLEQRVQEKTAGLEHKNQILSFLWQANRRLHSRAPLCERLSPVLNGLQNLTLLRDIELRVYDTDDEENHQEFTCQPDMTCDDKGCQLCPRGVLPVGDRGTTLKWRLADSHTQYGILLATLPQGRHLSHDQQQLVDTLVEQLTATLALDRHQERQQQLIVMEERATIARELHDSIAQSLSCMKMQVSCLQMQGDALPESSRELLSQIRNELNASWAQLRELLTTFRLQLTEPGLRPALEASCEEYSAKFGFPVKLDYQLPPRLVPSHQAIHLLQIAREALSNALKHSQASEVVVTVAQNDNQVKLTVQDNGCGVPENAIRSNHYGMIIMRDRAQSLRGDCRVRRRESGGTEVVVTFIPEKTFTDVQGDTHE

RBDCRD-NarX fusions (RAS-binding components of the RAS sensor, RBDCRD wild-type) (from UniProt P0AFA2 379-598; P0AFA2 379-598)
increase in relative mCerulean output of the functional RAS sensor compared to 0 ng/well of KRAS^G12D plasmid (HEK293, Figure 2—figure supplement 2b): 14 fold
